According to US20030060599A1, “Tripeptide amides that block viral infectivity and methods of use thereof” (published 2003):
Ends that are not written are not given here.

Target: major capsid protein (p24) of HIV-1 (HIV-1 (SF-2), UniProt P03349)
Experiment: cell-based or functional assay

Binder | antiviral inhibitory activity as determined by p24 production and RT activity in the culture supernatants (H9 cells, HIV-1 SF-2, 100 µM peptide) [%]
Pro-Lys-Glu-NH2 [Pro-Lys-Glu-NH2] | > 80
Thr-Leu-Glu-NH2 [Thr-Leu-Glu-NH2] | > 80
Glu-Pro-Phe-NH2 [Glu-Pro-Phe-NH2] | > 80
Arg-Val-Leu-NH2 [Arg-Val-Leu-NH2] | > 80
